From patent US20050053592

Columns and labels:
GST-Sav^362-607, Q9VCR6 = molecular target: T1, GST-Sav^362-607, Q9VCR6
T1 chain: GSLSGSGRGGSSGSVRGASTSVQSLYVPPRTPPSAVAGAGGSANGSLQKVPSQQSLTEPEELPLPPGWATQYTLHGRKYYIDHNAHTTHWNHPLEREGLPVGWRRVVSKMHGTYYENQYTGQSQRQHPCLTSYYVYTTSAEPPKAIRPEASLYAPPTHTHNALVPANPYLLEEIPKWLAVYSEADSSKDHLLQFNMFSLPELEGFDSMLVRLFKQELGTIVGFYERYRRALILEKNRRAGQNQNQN

[1] = molecular target: GST-Tsc1 (control GST fusion protein)
GST-Wts^68-414, Q9VA38 = molecular target: T2, GST-Wts^68-414, Q9VA38
T2 chain: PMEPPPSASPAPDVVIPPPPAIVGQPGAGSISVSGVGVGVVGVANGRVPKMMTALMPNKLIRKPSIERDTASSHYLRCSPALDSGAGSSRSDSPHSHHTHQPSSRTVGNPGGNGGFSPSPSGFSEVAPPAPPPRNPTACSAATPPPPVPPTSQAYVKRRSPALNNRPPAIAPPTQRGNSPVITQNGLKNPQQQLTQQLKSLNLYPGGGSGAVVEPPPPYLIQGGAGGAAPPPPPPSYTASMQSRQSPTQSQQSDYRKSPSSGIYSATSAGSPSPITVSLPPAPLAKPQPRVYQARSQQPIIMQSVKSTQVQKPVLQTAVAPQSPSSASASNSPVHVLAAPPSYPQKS

[2] = molecular target: T3, endogenous Sav (Salvador), Q9VCR6
T3 chain: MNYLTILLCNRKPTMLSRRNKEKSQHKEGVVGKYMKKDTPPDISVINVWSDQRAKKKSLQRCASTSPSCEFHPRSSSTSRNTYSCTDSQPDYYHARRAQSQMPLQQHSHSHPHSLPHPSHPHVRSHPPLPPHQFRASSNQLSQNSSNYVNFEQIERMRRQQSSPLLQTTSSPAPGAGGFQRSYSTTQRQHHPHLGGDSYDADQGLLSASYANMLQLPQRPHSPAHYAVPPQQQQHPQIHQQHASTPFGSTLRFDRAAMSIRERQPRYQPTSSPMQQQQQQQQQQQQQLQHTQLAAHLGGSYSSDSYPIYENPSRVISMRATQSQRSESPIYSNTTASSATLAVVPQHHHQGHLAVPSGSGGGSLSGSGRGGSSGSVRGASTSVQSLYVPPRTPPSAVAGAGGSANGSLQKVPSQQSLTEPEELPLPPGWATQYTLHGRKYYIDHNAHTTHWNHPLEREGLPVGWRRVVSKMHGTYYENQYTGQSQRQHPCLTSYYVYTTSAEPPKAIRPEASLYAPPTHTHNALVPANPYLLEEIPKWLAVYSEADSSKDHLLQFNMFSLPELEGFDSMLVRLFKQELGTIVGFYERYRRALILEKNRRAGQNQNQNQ

B1: Myc-tagged Hpo (protein)
chain: MEQKLISEEDLNESEPEVTSVVDMKSPNISSSCSFFKLKKLSEESLLQPPEKVFDIMYKLGEGSYGSVYKAVHKESSSIVAIKLVPVESDLHEIIKEISIMQQCDSPYVVRYYGSYFKQYDLWICMEYCGAGSVSDIMRLRKKTLTEDEIATILSDTLQGLVYLHLRRKIHRDIKAANILLNTEGYAKLADFGVAGQLTDTMAKRNTVIGTPFWMAPEVIEEIGYDCVADIWSLGITALEMAEGKPPYGEIHPMRAIFMIPQKPPPSFREPDRWSTEFIDFVSKCLVKEPDDRATATELLEHEFIRNAKHRSILKPMLEETCAIREQQRANRSFGGVLAASQAKSLATQENGMQQHITDNAFMEDPGTLVPEKFGEYQQSSASDATMIAHAEQGVDEGTLGPGGLRNLSKAAAPAAASSAASPLDMPAVDSGTMVELESNLGTMVINSDSDDSTTAKNNDDQKPRNRYRPQFLEHFDRKNAGDGRGDEKPIATEYSPAAAEQQQQQQQQQQQQQQDEQHLASGANDLNNWEHNMEMQFQQISAINQYGLQQHQQQQQVLMAYPLMNEQLIALNNQPNLLLSNAAPMGQQGIPAAAPAQPPPAYQNQHMHTQSHAYVEGEFEFLKFLTFDDLNQRLCNIDHEMELEIEQLNKKYNAKRQPIVDAMNAKRKRQQNINNNLIKI
- in vitro kinase assay (32P phosphorylation of the GST substrate) (GST-Sav^362-607, Q9VCR6): myc-tagged Hpo protein specifically phosphorylated a GST fusion protein containing the Hpo-binding region of Sav
- in vitro kinase assay (32P phosphorylation of the GST substrate) [1]: no signals were detected using a control substrate
- in vitro kinase assay (32P phosphorylation of the GST substrate) (GST-Wts^68-414, Q9VA38): a GST fusion protein containing this region of Wts was phosphorylated by Hpo

B2: kinase dead Hpo^K71R mutant (UAS-hpo^K71R) (protein)
chain: MSEPEVTSVVDMKSPNISSSCSFFKLKKLSEESLLQPPEKVFDIMYKLGEGSYGSVYKAVHKESSSIVAIRLVPVESDLHEIIKEISIMQQCDSPYVVRYYGSYFKQYDLWICMEYCGAGSVSDIMRLRKKTLTEDEIATILSDTLQGLVYLHLRRKIHRDIKAANILLNTEGYAKLADFGVAGQLTDTMAKRNTVIGTPFWMAPEVIEEIGYDCVADIWSLGITALEMAEGKPPYGEIHPMRAIFMIPQKPPPSFREPDRWSTEFIDFVSKCLVKEPDDRATATELLEHEFIRNAKHRSILKPMLEETCAIREQQRANRSFGGVLAASQAKSLATQENGMQQHITDNAFMEDPGTLVPEKFGEYQQSSASDATMIAHAEQGVDEGTLGPGGLRNLSKAAAPAAASSAASPLDMPAVDSGTMVELESNLGTMVINSDSDDSTTAKNNDDQKPRNRYRPQFLEHFDRKNAGDGRGDEKPIATEYSPAAAEQQQQQQQQQQQQQQDEQHLASGANDLNNWEHNMEMQFQQISAINQYGLQQHQQQQQVLMAYPLMNEQLIALNNQPNLLLSNAAPMGQQGIPAAAPAQPPPAYQNQHMHTQSHAYVEGEFEFLKFLTFDDLNQRLCNIDHEMELEIEQLNKKYNAKRQPIVDAMNAKRKRQQNINNNLIKI
- increase in wing size (MS1096 Gal4 driver) [2]: expression of the kinase dead Hpo^K71R mutant results in 35% increase in wing size
